Laboratory results reported in patent publication US20190153108A1 (AbbVie / Abbott, published 2019).

B1: AbA-CZ (antibody, V domains shown)
VH: EVQLQESGPGLVKPSQTLSLTCTVSGYSISRDFAWNWIRQPPGKGLEWMGYISYNGNTRYQPSLKSRITISRDTSKNQFFLKLNSVTAADTATYYCVTASRGFPYWGQGTLVTVSS
VL: DIQMTQSPSSMSVSVGDRVTITCHSSQDINSNIGWLQQKPGKSFKGLIYHGTNLDDGVPSRFSGSGSGTDYTLTISSLQPEDFATYYCVQYAQFPWTFGGGTKLEIKR
modifications: synthon CZ on reduced interchain Cys
B2: AbB-ZZ (antibody, V domains shown)
VH: EVQLQESGPGLVKPSQTLSLTCTVSGYSISNDFAWNWIRQPPGKGLEWMGYISYKGNTRYQPSLKSRITISRDTSKNQFFLKLNSVTAADTATYYCVTASRGFPWWGQGTLVTVSS
VL: DIQMTQSPSSMSVSVGDRVTITCHSSQDINSNIGWLQQKPGKSFKGLIYHGTNLDDGVPSRFSGSGSGTDYTLTISSLQPEDFATYYCVQYAQFPWTFGGGTKLEIKR
modifications: synthon ZZ on reduced interchain Cys
B3: AbA-XW (antibody, V domains shown)
VH: EVQLQESGPGLVKPSQTLSLTCTVSGYSISRDFAWNWIRQPPGKGLEWMGYISYNGNTRYQPSLKSRITISRDTSKNQFFLKLNSVTAADTATYYCVTASRGFPYWGQGTLVTVSS
VL: DIQMTQSPSSMSVSVGDRVTITCHSSQDINSNIGWLQQKPGKSFKGLIYHGTNLDDGVPSRFSGSGSGTDYTLTISSLQPEDFATYYCVQYAQFPWTFGGGTKLEIKR
modifications: synthon XW on reduced interchain Cys
B4: AbA-SR (antibody, V domains shown)
VH: EVQLQESGPGLVKPSQTLSLTCTVSGYSISRDFAWNWIRQPPGKGLEWMGYISYNGNTRYQPSLKSRITISRDTSKNQFFLKLNSVTAADTATYYCVTASRGFPYWGQGTLVTVSS
VL: DIQMTQSPSSMSVSVGDRVTITCHSSQDINSNIGWLQQKPGKSFKGLIYHGTNLDDGVPSRFSGSGSGTDYTLTISSLQPEDFATYYCVQYAQFPWTFGGGTKLEIKR
modifications: synthon SR on reduced interchain Cys
B5: AbA-YG (antibody, V domains shown)
VH: EVQLQESGPGLVKPSQTLSLTCTVSGYSISRDFAWNWIRQPPGKGLEWMGYISYNGNTRYQPSLKSRITISRDTSKNQFFLKLNSVTAADTATYYCVTASRGFPYWGQGTLVTVSS
VL: DIQMTQSPSSMSVSVGDRVTITCHSSQDINSNIGWLQQKPGKSFKGLIYHGTNLDDGVPSRFSGSGSGTDYTLTISSLQPEDFATYYCVQYAQFPWTFGGGTKLEIKR
modifications: synthon YG on reduced interchain Cys
B6: AbB-ZT (antibody, V domains shown)
VH: EVQLQESGPGLVKPSQTLSLTCTVSGYSISNDFAWNWIRQPPGKGLEWMGYISYKGNTRYQPSLKSRITISRDTSKNQFFLKLNSVTAADTATYYCVTASRGFPWWGQGTLVTVSS
VL: DIQMTQSPSSMSVSVGDRVTITCHSSQDINSNIGWLQQKPGKSFKGLIYHGTNLDDGVPSRFSGSGSGTDYTLTISSLQPEDFATYYCVQYAQFPWTFGGGTKLEIKR
modifications: synthon ZT on reduced interchain Cys
B7: AbB-YG (antibody, V domains shown)
VH: EVQLQESGPGLVKPSQTLSLTCTVSGYSISNDFAWNWIRQPPGKGLEWMGYISYKGNTRYQPSLKSRITISRDTSKNQFFLKLNSVTAADTATYYCVTASRGFPWWGQGTLVTVSS
VL: DIQMTQSPSSMSVSVGDRVTITCHSSQDINSNIGWLQQKPGKSFKGLIYHGTNLDDGVPSRFSGSGSGTDYTLTISSLQPEDFATYYCVQYAQFPWTFGGGTKLEIKR
modifications: synthon YG on reduced interchain Cys
B8: AbG-ZT (antibody, V domains shown)
VH: EVQLQESGPGLVKPSQTLSLTCTVSGYSISNDFAWNWIRQLPGKGLEWMGYISYKGNTRYQPSLKSRITISRDTSKNQFFLKLNSVTAADTATYYCVTASRGLPYWGQGTLVTVSS
VL: DIQMTQSPSSMSVSVGDRVTITCHSSQDITYNIGWLQQKPGKSFKGLIYHGANLDDGVPSRFSGSGSGTDYTLTISSLQPEDFATYYCVQYDEFPWTFGGGTKLEIKR
modifications: synthon ZT on reduced interchain Cys
B9: AbA-SE (antibody, V domains shown)
VH: EVQLQESGPGLVKPSQTLSLTCTVSGYSISRDFAWNWIRQPPGKGLEWMGYISYNGNTRYQPSLKSRITISRDTSKNQFFLKLNSVTAADTATYYCVTASRGFPYWGQGTLVTVSS
VL: DIQMTQSPSSMSVSVGDRVTITCHSSQDINSNIGWLQQKPGKSFKGLIYHGTNLDDGVPSRFSGSGSGTDYTLTISSLQPEDFATYYCVQYAQFPWTFGGGTKLEIKR
modifications: synthon SE on reduced interchain Cys
B10: AbB-XW (antibody, V domains shown)
VH: EVQLQESGPGLVKPSQTLSLTCTVSGYSISNDFAWNWIRQPPGKGLEWMGYISYKGNTRYQPSLKSRITISRDTSKNQFFLKLNSVTAADTATYYCVTASRGFPWWGQGTLVTVSS
VL: DIQMTQSPSSMSVSVGDRVTITCHSSQDINSNIGWLQQKPGKSFKGLIYHGTNLDDGVPSRFSGSGSGTDYTLTISSLQPEDFATYYCVQYAQFPWTFGGGTKLEIKR
modifications: synthon XW on reduced interchain Cys
B11: AbB-SE (antibody, V domains shown)
VH: EVQLQESGPGLVKPSQTLSLTCTVSGYSISNDFAWNWIRQPPGKGLEWMGYISYKGNTRYQPSLKSRITISRDTSKNQFFLKLNSVTAADTATYYCVTASRGFPWWGQGTLVTVSS
VL: DIQMTQSPSSMSVSVGDRVTITCHSSQDINSNIGWLQQKPGKSFKGLIYHGTNLDDGVPSRFSGSGSGTDYTLTISSLQPEDFATYYCVQYAQFPWTFGGGTKLEIKR
modifications: synthon SE on reduced interchain Cys
B12: AbA-AAA (antibody, V domains shown)
VH: EVQLQESGPGLVKPSQTLSLTCTVSGYSISRDFAWNWIRQPPGKGLEWMGYISYNGNTRYQPSLKSRITISRDTSKNQFFLKLNSVTAADTATYYCVTASRGFPYWGQGTLVTVSS
VL: DIQMTQSPSSMSVSVGDRVTITCHSSQDINSNIGWLQQKPGKSFKGLIYHGTNLDDGVPSRFSGSGSGTDYTLTISSLQPEDFATYYCVQYAQFPWTFGGGTKLEIKR
modifications: synthon AAA on reduced interchain Cys
B13: AbB-KZ (antibody, V domains shown)
VH: EVQLQESGPGLVKPSQTLSLTCTVSGYSISNDFAWNWIRQPPGKGLEWMGYISYKGNTRYQPSLKSRITISRDTSKNQFFLKLNSVTAADTATYYCVTASRGFPWWGQGTLVTVSS
VL: DIQMTQSPSSMSVSVGDRVTITCHSSQDINSNIGWLQQKPGKSFKGLIYHGTNLDDGVPSRFSGSGSGTDYTLTISSLQPEDFATYYCVQYAQFPWTFGGGTKLEIKR
modifications: synthon KZ on reduced interchain Cys
B14: AbB-SR (antibody, V domains shown)
VH: EVQLQESGPGLVKPSQTLSLTCTVSGYSISNDFAWNWIRQPPGKGLEWMGYISYKGNTRYQPSLKSRITISRDTSKNQFFLKLNSVTAADTATYYCVTASRGFPWWGQGTLVTVSS
VL: DIQMTQSPSSMSVSVGDRVTITCHSSQDINSNIGWLQQKPGKSFKGLIYHGTNLDDGVPSRFSGSGSGTDYTLTISSLQPEDFATYYCVQYAQFPWTFGGGTKLEIKR
modifications: synthon SR on reduced interchain Cys
B15: AbA-YY (antibody, V domains shown)
VH: EVQLQESGPGLVKPSQTLSLTCTVSGYSISRDFAWNWIRQPPGKGLEWMGYISYNGNTRYQPSLKSRITISRDTSKNQFFLKLNSVTAADTATYYCVTASRGFPYWGQGTLVTVSS
VL: DIQMTQSPSSMSVSVGDRVTITCHSSQDINSNIGWLQQKPGKSFKGLIYHGTNLDDGVPSRFSGSGSGTDYTLTISSLQPEDFATYYCVQYAQFPWTFGGGTKLEIKR
modifications: synthon YY on reduced interchain Cys
B16: AbA-KZ (antibody, V domains shown)
VH: EVQLQESGPGLVKPSQTLSLTCTVSGYSISRDFAWNWIRQPPGKGLEWMGYISYNGNTRYQPSLKSRITISRDTSKNQFFLKLNSVTAADTATYYCVTASRGFPYWGQGTLVTVSS
VL: DIQMTQSPSSMSVSVGDRVTITCHSSQDINSNIGWLQQKPGKSFKGLIYHGTNLDDGVPSRFSGSGSGTDYTLTISSLQPEDFATYYCVQYAQFPWTFGGGTKLEIKR
modifications: synthon KZ on reduced interchain Cys

Biological target: human Epidermal Growth Factor Receptor (huEGFR) over-expressed in mcl-1-/- mouse embryonic fibroblasts (human, UniProt P00533 25-1210)
Test: cell-based or functional assay

Compared with B1, B2 is 25-fold higher in “huEGFR^+ mcl-1^-/- MEF EC50” value: 0.3 nM for the first, 7.4 nM for the second.

Compared with B3, B4 is 5.4-fold lower in “huEGFR^+ mcl-1^-/- MEF EC50” value: 32 nM for the first, 5.9 nM for the second.

B5 and B6 are within 1.5-fold of each other in “huEGFR^+ mcl-1^-/- MEF EC50” value: 6.4 nM for the first, 8.9 nM for the second.

Compared with B7, B8 is 10-fold higher in “huEGFR^+ mcl-1^-/- MEF EC50” value: 3.3 nM for the first, 33 nM for the second.

Going from B9 to B10, the “huEGFR^+ mcl-1^-/- MEF EC50” value falls from 105 nM to 0.65 nM (160-fold).

Compared with B11, B12 is 5.6-fold higher in “huEGFR^+ mcl-1^-/- MEF EC50” value: 39 nM for the first, 220 nM for the second.

First: B13
Second: B14
The “huEGFR^+ mcl-1^-/- MEF EC50” value of the first is 7.9-fold higher: 55 nM for the first, 7 nM for the second.

Compared with B15, B16 is 3-fold lower in “huEGFR^+ mcl-1^-/- MEF EC50” value: 460 nM for the first, 152 nM for the second.
